Read-outs that look alike come from different tables or passages of the source. One block for each binder: values may come before it.
Experiments:
[1] = target: recombinant human IL-9 (R&D Systems) (Homo sapiens, UniProt P15248); assay: BLI
[2] = target: recombinant mouse IL-9 (R&D Systems) (mouse, UniProt P15247); assay: BLI
[3] = target: T1, non-glycosylated binary hIL-9:hIL-9Rα complex (human, UniProt P15248 19-144; Q01113-1 40-261); assay: ITC
[4] = target: T1, non-glycosylated binary hIL-9:hIL-9Rα …; assay: ITC; remark: listed apart in the source

T1 sequence (P15248 19-144, chain 1 of 2): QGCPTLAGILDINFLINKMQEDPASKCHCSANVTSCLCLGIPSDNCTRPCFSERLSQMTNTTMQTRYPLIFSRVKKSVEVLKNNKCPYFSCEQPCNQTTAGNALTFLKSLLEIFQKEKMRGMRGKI
T1 sequence (Q01113 40-261, chain 2 of 2): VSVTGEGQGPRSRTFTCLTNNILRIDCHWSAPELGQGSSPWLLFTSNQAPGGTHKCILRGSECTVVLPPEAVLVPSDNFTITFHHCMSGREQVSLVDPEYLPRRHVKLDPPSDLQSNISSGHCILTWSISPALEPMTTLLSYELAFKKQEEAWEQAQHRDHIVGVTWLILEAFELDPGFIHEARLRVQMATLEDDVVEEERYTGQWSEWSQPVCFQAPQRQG
recombinant human IL-9 (R&D Systems), sequence (P15248 19-144): as the sequence (P15248 19-144, chain 1 of 2) above
recombinant mouse IL-9 (R&D Systems), sequence (P15247 19-144): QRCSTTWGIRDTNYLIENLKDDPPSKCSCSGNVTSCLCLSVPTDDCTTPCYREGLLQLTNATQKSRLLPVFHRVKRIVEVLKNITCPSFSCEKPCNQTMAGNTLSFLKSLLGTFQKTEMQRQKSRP

B1: anti-hIL-9 monoclonal antibody 7D6 (antibody, V domains shown)
VH: QLQLVESGPGLVKPSQTLSLTCTVSGGSITTGYYAWSWIRQPPGKGLEWMGFIARDGSTSYSPSLKSRTSISRDTSKNQFSLQLSSVTPEDTAVYYCARAGEGRSWYPGYYYGMDYWGKGTLVTVSS
VL: QAVVTQEPSLSVSPGGTVTLTCGLSSGSVTSSNYPGWYQQTPGQAPRVLIYNTNSRHSGVPSRYSGFISGNKAALTITGAEPEDEADYYCHLHKGSTGVFGGGTHLTVL
Kd [1]: 1.8 nM

B2: anti-hIL-9 monoclonal antibody 6E2 (antibody, V domains shown)
VH: QVQLVESGGGLVQPGGSLRLSCAASGFTFSSSAMGWVRQAPGKGLEWVSTIVNSITTTYYADSVKGRFTISTDNAKNTLYLQIDSLKSEDTAVYYCGSLAGPYYDYWGQGTQVTVSS
VL: ALTQPSTVSVSLGQTARITCQGGSLGSYDAHWYQQKPGQAPVLVIHDNNSRPSGIPERFTGSRSGETATLTISGAQTEDEADYYCQSYDSTSDALVFGGGTQLTVL
Kd [1]: 0.24 nM

Now from value to binder:

binding result [2]: binds
B3: anti-mIL-9 monoclonal antibody 35D8 (antibody, V domains shown)
VH: QVQLVESGPGLVQPSQTLSLTCTVSGGSITTSYYDWSWIRQPPGKGLEWMGAIAYSGNAYYSPSLKSRTSISRDTSKNQFTLQLSSVTPEDTAVYYCAREDHYSDTHGWNDYWGQGTQVTVSS
VL: ALTQPSAVSVSLGQTARITCQGGSIGNFGATWYQQKPGQAPVLLSLGEHSRPSGIPERFSGSKSGGTATLTISGAQAEDEADYYCQSFDYIGNDHVFGGGTHLTVL

Kd [3]: 2500 nM
Kd [4]: 9000 nM
B4: trimmed extracellular domain of human common gamma chain (hγc, residues 56-254), produced in Sf9 cells (receptor, UniProt P31785-1 56-254, looked up)
chain: PLPEVQCFVFNVEYMNCTWNSSSEPQPTNLTLHYWYKNSDNDKVQKCSHYLFSEEITSGCQLQKKEIHLYQTFVVQLQDPREPRRQATQMLKLQNLVIPWAPENLTLHKLSESQLELNWNNRFLNHCLEHLVQYRTDWDHSWTEQSVDYRHKFSLPSVDGQKRYTFRVRSRFNPLCGSAQHWSEWSHPIHWGSNTSKEN

Source: article doi:10.1101/2022.12.30.522308 (bioRxiv, 2022)
